# In PMC9017247:
# Columns and labels:
# [1] = biological target: recombinant SARS-CoV-2 spike protein (SARS-CoV-2) (UniProt P0DTC2); assay: ITC; MicroCal ITC200; 50 uM rGRFT injected (2 uL, 120 s intervals) into the cell with 280 uL of 1 uM spike protein; 1x PBS, pH 7.4
# [2] = biological target: recombinant SARS-CoV-2 spike protein (SARS-CoV-2) (UniProt P0DTC2); assay: QCM-D; spike protein (400 ug/mL) immobilised by EDC/NHS on an 11-MUA carboxylated gold sensor, ethanolamine-blocked; 0.5-10 uM rGRFT flowed in turn at 20 uL/min, 1x PBS
substance,measurement,setting,value
recombinant griffithsin lectin protein (rGRFT) (from UniProt P84801 1-121) (natural protein),Kd,[1],9.9 µM
same,stoichiometry N (rGRFT per spike),[1],6
same,Kd,[2],1.6 µM
